Experimental data: KR20220012810A (dated 2022)

How the values were obtained:
[1] = biological target: SARS-CoV-2 spike 'D614 or G614' (pseudovirus) (SARS-CoV-2, UniProt P0DTC2 14-1273); test: cell-based or functional assay
MERS-CoV RBD = biological target: T1, MERS-CoV RBD (MERS-CoV, UniProt K9N5Q8 367-606); test: BLI (Octet)
T1 sequence: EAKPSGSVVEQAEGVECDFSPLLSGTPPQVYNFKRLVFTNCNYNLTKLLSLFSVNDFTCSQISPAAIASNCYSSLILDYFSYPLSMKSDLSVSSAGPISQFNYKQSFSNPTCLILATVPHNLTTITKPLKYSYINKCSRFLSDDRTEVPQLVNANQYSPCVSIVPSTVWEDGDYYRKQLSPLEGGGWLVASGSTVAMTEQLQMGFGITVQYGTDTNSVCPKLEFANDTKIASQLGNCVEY

SARS-CoV S1 = SARS-CoV S1 (SARS-CoV, UniProt P59594 14-667); test: BLI (Octet)
HCoV-HKU1 S1 = biological target: T2, HCoV-HKU1 S1 (HCoV-HKU1, UniProt Q5MQD0 13-760); test: BLI (Octet)
T2 construct: domain: S1
T2 sequence: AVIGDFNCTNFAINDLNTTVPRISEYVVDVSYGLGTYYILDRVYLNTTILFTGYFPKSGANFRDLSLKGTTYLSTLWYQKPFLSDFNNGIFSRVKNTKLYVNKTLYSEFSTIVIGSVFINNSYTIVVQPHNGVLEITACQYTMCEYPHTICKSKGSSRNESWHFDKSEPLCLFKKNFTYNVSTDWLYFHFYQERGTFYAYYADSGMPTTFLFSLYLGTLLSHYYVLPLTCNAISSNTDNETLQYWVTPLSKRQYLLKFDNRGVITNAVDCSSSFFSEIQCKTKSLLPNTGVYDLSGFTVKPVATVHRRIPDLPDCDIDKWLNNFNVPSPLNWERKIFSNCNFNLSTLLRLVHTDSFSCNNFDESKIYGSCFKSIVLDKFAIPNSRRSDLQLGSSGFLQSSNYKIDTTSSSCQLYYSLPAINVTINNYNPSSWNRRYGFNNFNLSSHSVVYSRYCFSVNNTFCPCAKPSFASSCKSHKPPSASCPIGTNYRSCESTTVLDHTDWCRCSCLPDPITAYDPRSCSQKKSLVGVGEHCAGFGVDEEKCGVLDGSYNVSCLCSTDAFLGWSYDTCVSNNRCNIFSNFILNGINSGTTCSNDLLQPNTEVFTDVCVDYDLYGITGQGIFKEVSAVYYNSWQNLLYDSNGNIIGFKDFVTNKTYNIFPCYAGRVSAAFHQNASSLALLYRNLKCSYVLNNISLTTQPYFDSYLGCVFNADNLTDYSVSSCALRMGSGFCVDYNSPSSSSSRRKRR

[2] = biological target: SARS-CoV-2 spike D614 (pseudovirus) (SARS-CoV-2, UniProt P0DTC2 14-1273); test: cell-based or functional assay

B1: No. 139 항체 (Full IgG) (antibody, V domains shown)
VH: QITLKESGPTLVKPTQTLTLTCSFSGFSLSTSGVGVGWIRQPPGKALEWLALIDWDDNKYHTTSLKTRLTISKDTSKNQVVLTMTNMDPVDTATYYCARIPGFLRYRNRYYYYGMDVWGQGTTVTVSS
VL: ELVLTQPPSVSAAPGQKVTISCSGSSSNIGNNYVSWYQQLPGTAPKLLIYDNNKRPSGIPDRFSGSKSGTSATLGITGLQTGDEADYYCGTWDSSLSAGVFGGGTELTVL
IC50, pseudovirus neutralisation [1]: 0.35 ng/mL
binding result (MERS-CoV RBD): no binding
binding result (SARS-CoV S1): no binding
binding result (HCoV-HKU1 S1): no binding
IC50, pseudovirus neutralisation [2]: 0.378 ng/mL
